Measured values reported in publication PMC12350170, “Structural basis for the synergistic assembly of the snRNA export complex” (Nature Structural & Molecular Biology, 2025).

B1: MBP-PHAX103–196 (wild type) [human] / Human nuclear cap-binding complex (CBC): CBP80ΔNLS with CBP20 [human] (parent)
chain 1: SQKPPVAGGKKINNIWGAVLQEQNQDAVATELGILGMEGTIDRSRQSETYNYLLAKKLRKESQEHTKDLDKELDEYMHGGKKMGSKEEENGQGH
chain 2: KTSDANETEDHLESLICKVGEKSACSLESNLEGLAGVLEADLPNYKSKILRLLCTVARLLPEKLTIYTTLVGLLNARNYNFGGEFVEAMIRQLKESLKANNYNEAVYLVRFLSDLVNCHVIAAPSMVAMFENFVSVTQEEDVPQVRRDWYVYAFLSSLPWVGKELYEKKDAEMDRIFANTESYLKRRQKTHVPMLQVWTADKPHPQEEYLDCLWAQIQKLKKDRWQERHILRPYLAFDSILCEALQHNLPPFTPPPHTEDSVYPMPRVIFRMFDYTDDPEGPVMPGSHSVERFVIEENLHCIIKSHWKERKTCAAQLVSYPGKNKIPLNYHIVEVIFAELFQLPAPPHIDVMYTTLLIELCKLQPGSLPQVLAQATEMLYMRLDTMNTTCVDRFINWFSHHLSNFQFRWSWEDWSDCLSQDPESPKPKFVREVLEKCMRLSYHQRILDIVPPTFSALCPANPTCIYKYGDESSNSLPGHSVALCLAVAFKSKATNDEIFSILKDVPNPNQDDDDDEGFSFNPLKIEVFVQTLLHLAAKSFSHSFSALAKFHEVFKTLAESDEGKLHVLRVMFEVWRNHPQMIAVLVDKMIRTQIVDCAAVANWIFSSELSRDFTRLFVWEILHSTIRKMNKHVLKIQKELEEAKEKLARQHKRRSDDDDRSSDRKDGVLEEQIERLQEKVESAQSEQKNLFLVIFQRFIMILTEHLVRCETDGTSVLTPWYKNCIERLQQIFLQHHQIIQQYMVTLENLLFTAELDPHILAVFQQFCALQA
chain 3: MSGGLLKALRSDSYVELSQYRDQHFRGDNEEQEKLLKKSCTLYVGNLSFYTTEEQIYELFSKSGDIKKIIMGLDKMKKTACGFCFVEYYSRADAENAMRYINGTRLDDRIIRTDWDAGFKEGRQYGRGRSGGQVRDEYRQDYDAGRGGYGKLAQNQ

Variants of: B1
Assay: ITC
Conditions: CBC pre-bound to the cap analog m7GpppG

Row | Variant | Kd [nM]
1 | chain 1 R45E Y50E Y52E | 1970

Same assay, conditions: CBC pre-bound to the cap analog m7GpppG (row 'CBC-m7GpppG + PHAX103–196 (R147E, Y152E, Y154E)')

Row | Variant | Kd [nM]
2 | chain 1 R45E Y50E Y52E | 1970
